According to patent US20180273584A1 (REGENTS OF THE UNIVERSITY OF MICHIGAN, published 2018):
Values belong to the binder of their own block, whether it stands above or below them. Primed or numbered codes have the meaning given here. Ends that are not written are not given here. Cy5.5 = Cy5.5: Cy5.5 fluorophore (fluorescent dye); Cy5.5″ = Cy5.5 fluorophore

Legend:
[1] = molecular target: T1, HER2 over expressed in mouse colonic neoplasia (CPC;Apc mice) (mouse, UniProt P70424 23-1256); experiment: in vivo NIR fluorescence endoscopy, topical peptide, n=15 adenomas in mice, target-to-background ratio
T1 construct: whole, on cells; also called mouse HER2
T1 sequence (P70424 23-1256): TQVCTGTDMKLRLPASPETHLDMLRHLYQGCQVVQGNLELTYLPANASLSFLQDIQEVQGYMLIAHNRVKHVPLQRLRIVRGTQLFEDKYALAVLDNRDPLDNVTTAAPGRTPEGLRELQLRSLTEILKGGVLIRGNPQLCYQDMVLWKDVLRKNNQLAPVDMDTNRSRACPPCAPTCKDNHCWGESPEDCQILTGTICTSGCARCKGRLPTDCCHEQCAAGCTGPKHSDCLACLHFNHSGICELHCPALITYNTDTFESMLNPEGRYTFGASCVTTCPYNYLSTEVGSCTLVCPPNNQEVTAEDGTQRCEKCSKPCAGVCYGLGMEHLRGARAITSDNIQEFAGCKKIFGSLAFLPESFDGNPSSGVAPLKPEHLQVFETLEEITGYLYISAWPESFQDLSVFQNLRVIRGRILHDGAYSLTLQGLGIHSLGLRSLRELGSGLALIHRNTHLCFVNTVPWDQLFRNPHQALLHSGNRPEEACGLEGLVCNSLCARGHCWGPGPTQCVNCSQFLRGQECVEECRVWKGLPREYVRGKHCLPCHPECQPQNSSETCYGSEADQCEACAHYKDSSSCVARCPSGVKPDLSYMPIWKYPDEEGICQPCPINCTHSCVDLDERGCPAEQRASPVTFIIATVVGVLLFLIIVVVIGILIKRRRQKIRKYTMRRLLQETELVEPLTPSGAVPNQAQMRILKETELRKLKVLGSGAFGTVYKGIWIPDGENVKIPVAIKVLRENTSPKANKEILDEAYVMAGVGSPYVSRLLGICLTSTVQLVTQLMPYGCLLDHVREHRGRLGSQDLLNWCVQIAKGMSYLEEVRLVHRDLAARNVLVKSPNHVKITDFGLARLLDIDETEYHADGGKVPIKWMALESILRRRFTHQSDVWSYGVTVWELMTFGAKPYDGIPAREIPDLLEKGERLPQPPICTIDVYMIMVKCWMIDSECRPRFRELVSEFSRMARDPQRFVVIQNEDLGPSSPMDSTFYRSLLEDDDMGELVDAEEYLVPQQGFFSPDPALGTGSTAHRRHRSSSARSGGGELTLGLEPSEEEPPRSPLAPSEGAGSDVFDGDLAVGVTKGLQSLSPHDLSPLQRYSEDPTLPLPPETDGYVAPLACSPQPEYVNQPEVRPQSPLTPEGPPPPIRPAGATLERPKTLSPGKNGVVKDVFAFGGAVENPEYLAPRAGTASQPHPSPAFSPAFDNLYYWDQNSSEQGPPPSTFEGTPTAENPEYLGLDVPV
Procedure: Mouse imaging studies were performed with approval of the University of Michigan Committee on the Use and Care of Animals (UCUCA). The mice were housed in pathogen-free conditions and supplied water ad libitum under controlled conditions of humidity (50±10%), light (12/12 hour light/dark cycle) and temperature (25° C.). Anesthesia was induced and maintained via a nose cone with inhaled isoflurane mixed with oxygen at a concentration of 2-4% at a flow rate of ˜0.5 L/min. The colon was first rinsed with tap water to remove mucous and debris. White light illumination was used first to identify anatomic landmarks, including polyps, mucosal folds, colonic segment, and distance of endoscope tip from anus, to register the in vivo images with histology. […] During imaging, we recorded the 1) distance between the endoscope tip and the anus and 2) clockwise location of each region of high intensity. […]
We evaluated specific binding of KSP*-Cy5.5 to colonic adenomas that over express HER2 in CPC; Apc mice This mouse was genetically engineered to somatically delete an Apc allele under Cre regulation, and develops polypoid and flat adenomas spontaneously in the colon. […] Imaging was performed in vivo using a small animal endoscope that is sensitive to NIR fluorescence. […]

[2] = molecular target: T2, Human epidermal growth factor receptor 2 (HER2) (human, UniProt P04626 23-1255); experiment: flow cytometry on HT29 cells, apparent dissociation constant, 0-200 nM peptide, 4 °C 1 h
T2 construct: whole, on cells; also called ErbB2
Procedure: We measured the apparent dissociation constant of the HER2 peptide reagent to HT29 cells as an assessment of binding affinity. KSP*-Cy5.5 was serially diluted in PBS at concentrations of 0, 5, 10, 25, 50, 100, and 200 nM. ˜105 HT29 cells were incubated with KSP*-Cy5.5 at 4° C. for 1 hour and washed with cold PBS. The mean fluorescence intensities were measured with flow cytometry (BD® LSRII, BD Biosciences). The equilibrium dissociation constant kd=1/ka was calculated by performing a least squares fit of the data to the non-linear equation I, (I0+Imaxka[X])/([…]). I0 and Imax are the initial and maximum fluorescence intensities, corresponding to no peptide reagent and at saturation, respectively, and [X] represents the concentration of the bound peptide reagent. Graphpad prism analysis software (Graphpad Software Inc, La Jolla, Calif.) was used to calculate kd and ka.
We evaluated the binding parameters of KSP*-Cy5.5 to HT29 cells using flow cytometry.

[3] = molecular target: T1, HER2 over expressed in mouse colonic …; experiment: fluorescence imaging of mouse colon after intravenous KSP*-Cy5.5, n=4 mice
[4] = molecular target: T2, Human epidermal growth factor receptor …; experiment: confocal microscopy, 10 µM FITC-labeled peptide on Flo1-HER2 cells against Q-hTERT control cells
Procedure: Flo-1-Her2 and Q-hTERT cells were seeded with ˜7,500 cells in 12-well plates with 1.5 mm thick glass cover slides, and grown to ˜70% confluence. The cells were gently washed with cold PBS before adding the peptide. 10 μM of FITC-labeled peptide was added to each well and incubated at 4° C. for 1 hour. After incubation, the cells were washed 3× with PBS, fixed in ice-cold 4% PFA for 10 min, and washed 1× with PBS. Subsequently, the cells were embedded on microscope slides with ProLong Gold reagent containing DAPI (Invitrogen), and the slides where analyzed with a Leica TCS SP5 confocal microscope using 63× oil immersion objective (Leica Microsystems, Leider Lane IL). The FITC-labeled peptides and anti-HER2 antibody were tested in quadruplicate.
We attached a FITC label to each peptide, and imaged binding to Flo1-HER2 and Q-hTERT cells (control) using confocal microscopy. Western blot of these cells show difference in HER2 expression, FIG. 1B. We selected KSPNPRF based on the highest mean fluorescence intensity with binding to Flo1-HER2, FIG. 1C. From our model, this peptide binds to HER2 domain 3. […] The fluorescence emission peak occurs at 708 nm in the NIR spectrum. For both peptides, we achieved >98% purity with HPLC, and measured an experimental mass-to-charge (m/z) ratio on mass spectrometry of 1794.98, which agrees with expected values, FIG. 8A,B.

[5] = molecular target: HER2 over expressed in mouse colonic neoplasia (CPC;Apc mice) (mouse) (UniProt P70424); experiment: in vivo NIR fluorescence endoscopy, topical peptide, n=7 adenomas in mice, target-to-background ratio
HER2 over expressed in mouse colonic neoplasia (CPC;Apc mice) (mouse), sequence (P70424 23-1256): as above

mean T/B ratio [1]: 3.64
Kd [2]: 21 nM
fold mean fluorescence intensity, adenomas against surrounding normal mucosa [3]: 5.03 fold
B1: KSP*-Cy5.5 (KSPNPRF peptide labeled with Cy5.5 fluorophore via a GGGSK linker on the C-terminus) (peptide)
peptide: KSPNPRFGGGSK(Cy5.5)-NH2
notes: Synthetic L-amino-acid peptide, Fmoc solid-phase synthesis; also called HER2 peptide reagent; KSP*-Cy5.5 peptide reagent

binding result [4]: binds
Binder: KSPNPRF (also: FITC label, site of attachment not given here, also called FITC-labeled peptide) [FITC-labeled KSPNPRF (PEP1)]

mean T/B ratio [5]: 1.46
Binder: PPSNFKRGGGSK(Cy5.5″)-NH2 [PPS*-Cy5.5 (scrambled control peptide PPSNFKR linked to Cy5.5 via GGGSK)]
